# In publication PMC5092059:
# pKd: −log10 of the molar value.
# Key:
# 3H-gabapentin = 3H-gabapentin radioligand saturation binding; details: DRM fractions from transfected tsA-201 cells; n = 4
# [1] = target: GFP-CaV2.2 (rabbit CaV2.2 with an N-terminal GFP) (rabbit) (UniProt Q05152)
# Chain of UniProt Q05152 (Q05152 whole entry): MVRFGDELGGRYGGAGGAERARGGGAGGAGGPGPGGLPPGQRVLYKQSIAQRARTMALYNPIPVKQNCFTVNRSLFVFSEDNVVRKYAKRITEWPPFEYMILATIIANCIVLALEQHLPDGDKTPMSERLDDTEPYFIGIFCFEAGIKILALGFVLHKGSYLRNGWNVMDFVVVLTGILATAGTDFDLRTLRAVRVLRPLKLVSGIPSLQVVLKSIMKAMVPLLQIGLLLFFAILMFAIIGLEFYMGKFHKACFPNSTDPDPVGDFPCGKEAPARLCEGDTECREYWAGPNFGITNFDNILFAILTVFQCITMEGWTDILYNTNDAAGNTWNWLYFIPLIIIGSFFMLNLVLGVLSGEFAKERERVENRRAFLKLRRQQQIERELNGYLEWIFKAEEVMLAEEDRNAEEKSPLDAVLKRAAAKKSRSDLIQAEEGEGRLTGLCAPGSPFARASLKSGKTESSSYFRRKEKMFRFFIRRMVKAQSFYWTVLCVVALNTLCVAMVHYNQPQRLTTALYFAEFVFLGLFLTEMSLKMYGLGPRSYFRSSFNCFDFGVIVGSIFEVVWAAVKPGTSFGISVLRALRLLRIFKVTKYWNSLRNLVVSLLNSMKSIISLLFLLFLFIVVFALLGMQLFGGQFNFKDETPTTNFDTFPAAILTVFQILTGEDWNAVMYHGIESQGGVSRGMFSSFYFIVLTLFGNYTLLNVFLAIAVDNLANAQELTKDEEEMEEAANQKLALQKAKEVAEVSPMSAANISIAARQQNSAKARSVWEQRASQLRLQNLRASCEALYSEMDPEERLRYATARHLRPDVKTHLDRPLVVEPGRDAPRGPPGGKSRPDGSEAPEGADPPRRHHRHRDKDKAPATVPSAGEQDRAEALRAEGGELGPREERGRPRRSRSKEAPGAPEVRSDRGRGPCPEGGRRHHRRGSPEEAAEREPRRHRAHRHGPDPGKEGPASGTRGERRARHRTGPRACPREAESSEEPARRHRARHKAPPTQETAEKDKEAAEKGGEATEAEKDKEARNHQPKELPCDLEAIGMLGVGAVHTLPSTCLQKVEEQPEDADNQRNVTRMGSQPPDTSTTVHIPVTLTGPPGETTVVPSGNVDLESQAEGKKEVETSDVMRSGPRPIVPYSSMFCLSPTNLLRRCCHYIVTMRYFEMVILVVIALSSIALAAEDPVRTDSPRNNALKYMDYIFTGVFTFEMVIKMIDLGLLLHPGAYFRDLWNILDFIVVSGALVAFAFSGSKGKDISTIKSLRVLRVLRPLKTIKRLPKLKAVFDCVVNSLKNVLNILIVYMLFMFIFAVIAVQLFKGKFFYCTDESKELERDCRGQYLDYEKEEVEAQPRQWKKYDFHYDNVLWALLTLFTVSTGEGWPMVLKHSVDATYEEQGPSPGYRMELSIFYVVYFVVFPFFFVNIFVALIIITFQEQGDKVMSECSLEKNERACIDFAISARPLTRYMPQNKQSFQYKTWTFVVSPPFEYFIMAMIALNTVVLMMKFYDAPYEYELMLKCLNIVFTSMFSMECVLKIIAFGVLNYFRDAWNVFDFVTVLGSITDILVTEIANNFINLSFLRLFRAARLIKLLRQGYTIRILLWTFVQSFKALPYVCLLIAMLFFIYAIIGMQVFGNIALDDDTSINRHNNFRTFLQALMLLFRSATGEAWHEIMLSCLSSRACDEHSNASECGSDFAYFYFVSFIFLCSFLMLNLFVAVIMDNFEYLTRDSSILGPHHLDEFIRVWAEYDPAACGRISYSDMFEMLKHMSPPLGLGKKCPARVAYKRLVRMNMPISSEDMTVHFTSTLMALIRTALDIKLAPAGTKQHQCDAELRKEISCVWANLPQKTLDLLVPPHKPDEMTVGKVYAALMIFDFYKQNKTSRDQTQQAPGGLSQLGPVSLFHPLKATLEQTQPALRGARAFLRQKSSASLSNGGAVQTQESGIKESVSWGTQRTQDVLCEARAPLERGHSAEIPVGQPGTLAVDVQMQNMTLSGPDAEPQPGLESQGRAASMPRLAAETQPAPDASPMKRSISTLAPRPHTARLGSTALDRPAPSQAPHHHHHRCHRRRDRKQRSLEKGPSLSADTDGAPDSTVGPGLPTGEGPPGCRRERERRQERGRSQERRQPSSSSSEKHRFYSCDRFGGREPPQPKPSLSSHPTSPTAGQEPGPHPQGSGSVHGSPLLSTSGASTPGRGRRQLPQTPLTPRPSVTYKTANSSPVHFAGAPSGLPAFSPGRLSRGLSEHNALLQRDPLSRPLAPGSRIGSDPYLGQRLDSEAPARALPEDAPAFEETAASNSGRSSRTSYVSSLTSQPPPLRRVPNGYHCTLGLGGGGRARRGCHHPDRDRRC
Substance,pKd (3H-gabapentin),"decrease in α2δ-1 immunostaining in hippocampal neurites after co-transfection with CaV2.2-HA/β1b, α2(3C)δ-1 relative to WT α2δ-1 [1] [%]"
"wild type α2δ-1 (rat) (from UniProt P54290) LEAVEM replaced by VVVVVV (hexavaline, V6)",7.17,–
α2(3C)δ-1 (rat α2δ-1 with the endogenous cleavage motif replaced by a Human Rhinovirus 3C-protease site) (natural protein),–,37
